Test results from PMC5682932 (The Biochemical journal, 2017).
Where a chain is given by its changes, count along the chain named. Names may count otherwise. One block for each binder: values may come before it.

Experiments:
[1] = biological target: T1, peptidyl-prolyl isomerase H (PPIH), full length, wild type (human, UniProt O43447 1-177); assay: SPR
[2] = biological target: T2, PPIH W133A mutant (human, UniProt O43447 1-177, W133A); assay: SPR
T2 sequence: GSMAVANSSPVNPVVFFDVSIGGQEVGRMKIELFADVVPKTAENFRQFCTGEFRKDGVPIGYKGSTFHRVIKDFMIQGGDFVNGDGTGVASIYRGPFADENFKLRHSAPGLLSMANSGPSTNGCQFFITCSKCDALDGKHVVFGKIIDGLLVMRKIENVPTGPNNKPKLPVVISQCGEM

[3] = biological target: T1, peptidyl-prolyl isomerase H (PPIH), …; assay: AUC

Kd [1]: 10.8 ± 1.37 µM
binding result [2]: binds
B1: pre-mRNA processing factor 4 (PRPF4), residues 1-98 (domain or fragment, human, UniProt O43172 1-98, looked up)
chain: MASSRASSTQATKTKAPDDLVAPVVKKPHIYYGSLEEKERERLAKGESGILGKDGLKAGIEAGNINITSGEVFEIEEHISERQAEVLAEFERRKRARQ

Kd [1]: 0.39 ± 0.04 µM
binding result [2]: binds
B2: pre-mRNA processing factor 4 (PRPF4), residues 1-169 (domain or fragment, human, UniProt O43172 1-169, looked up)
chain: MASSRASSTQATKTKAPDDLVAPVVKKPHIYYGSLEEKERERLAKGESGILGKDGLKAGIEAGNINITSGEVFEIEEHISERQAEVLAEFERRKRARQINVSTDDSEVKACLRALGEPITLFGEGPAERRERLRNILSVVGTDALKKTKKDDEKSKKSKEEYQQTWYHE

Kd [1]: 15.6 µM
B3: PRPF4 residues 1-169 with F122A (domain or fragment, human, UniProt O43172 1-169, looked up)
chain: B2 chain with F122A

stoichiometry N [3]: 2
binding result [2]: binds
B4: pre-mRNA processing factor 4 (PRPF4), residues 106-169 (domain or fragment, human, UniProt O43172 106-169, looked up)
chain: SEVKACLRALGEPITLFGEGPAERRERLRNILSVVGTDALKKTKKDDEKSKKSKEEYQQTWYHE

Kd [2]: 1 µM
B5: PRPF4 residues 106-169 with F122A (domain or fragment, human, UniProt O43172 106-169, looked up)
chain: B4 chain with F17A
